Columns and labels:
[1] = target: TagRFP-T-CENP-C with the talin rod domain at the C terminus (C-terminal CENP-C-TR control reporter) (Drosophila melanogaster | chicken) (UniProt P54939); assay: quantitative two-colour fluorescence imaging of recruitment to kinetochores in live cells; S2 cells co-expressing VH-EGFP and TagRFP-T-CENP-C-TR; 25 uM colchicine (unattached kinetochores, low/no force); VH-EGFP to TagRFP-T ratio divided by the correction ratio from TagRFP-T-CENP-C-EGFP; 25 °C
[2] = target: TagRFP-T-CENP-C with the talin rod domain inserted into the middle (internal CENP-C-TR reporter) (Drosophila melanogaster | chicken) (UniProt P54939); assay: as above
[3] = target: TagRFP-T-CENP-C with the talin rod domain inserted into the middle (internal CENP-C-TR reporter) (Drosophila melanogaster | chicken) (UniProt P54939); assay: quantitative two-colour fluorescence imaging of recruitment to kinetochores in live cells; S2 cells co-expressing VH-EGFP and TagRFP-T-CENP-C-TR; metaphase cells, 0.1% DMSO (bioriented kinetochores, under force); VH-EGFP to TagRFP-T ratio divided by the correction ratio from TagRFP-T-CENP-C-EGFP; 25 °C

B1: vinculin head domain (aa 1-258) fused to EGFP (domain or fragment)
chain: MPVFHTRTIESILEPVAQQISHLVIMHEEGEVDGKAIPDLTAPVSAVQAAVSNLVRVGKETVQTTEDQILKRDMPPAFIKVENACTKLVRAAQMLQADPYSVPARDYLIDGSRGILSGTSDLLLTFDEAEVRKIIRVCKGILEYLTVAEVVETMEDLVTYTKNLGPGMTKMAKMIDERQQELTHQEHRVMLVNSMNTVKELLPVLISAMKIFVTTKNTKSQGIEEALKNRNFTVEKMSAEINEIIRVLQLTSWDEDAW
What does the source list for B1?
stoichiometry N (VH molecules per TR) [1]: 0.75; stoichiometry N (VH-EGFP molecules per TR) [2]: 0.9; stoichiometry N (VH molecules per CENP-C-TR) [3]: 1.3
